The values below come from US20230220443A1, “CHARACTERIZATION OF S-ADENOSYL-L-METHIONINE-CONSUMING ENZYMES WITH 1-STEP EZ-MTASE: A UNIVERSAL COUPLED-ASSAY” (ALBERT EINSTEIN COLLEGE OF MEDICINE, priority 2017, published 2023).

In one experiment the target is T1, GsSDMT (Galdieria sulphuraria, UniProt M2XPA0).
T1 sequence (M2XPA0 2-297): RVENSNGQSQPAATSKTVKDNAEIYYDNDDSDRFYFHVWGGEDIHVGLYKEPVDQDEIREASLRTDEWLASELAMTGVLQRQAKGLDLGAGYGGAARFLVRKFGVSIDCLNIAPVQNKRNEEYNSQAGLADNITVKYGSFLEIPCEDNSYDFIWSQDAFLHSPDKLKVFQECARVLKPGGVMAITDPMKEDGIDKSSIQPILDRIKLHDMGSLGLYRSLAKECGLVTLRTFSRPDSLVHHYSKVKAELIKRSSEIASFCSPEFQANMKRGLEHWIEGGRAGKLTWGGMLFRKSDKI
As to the kind of experiment: GsSDMT inhibition by sinefungin (UV-mode). Format: biochemical. The following applies: pH=6.80, SAM 763 μM, sarcosine 5 mM, 195 nM GsSDMT; read-out: inhibition constant Ki. How it is done:
Briefly, kinetic parameters were determined at 20° C. in a UV-Star 96-well flat bottom plate (Greiner Bio-One, #655801) by continuous monitoring of absorbance at 263 nm using a SpectraMax M5 instrument (Molecular Devices). The 100-μL reaction mixtures from a set of two rows contained 100 mM phosphate buffer pH=6.80, 1 mM βME, 5% glycerol, […] MgCl2, 4 μM coupling deaminase TM0936, 195 nM GsSDMT, saturating level of SAM (763 μM) and various sinefungin concentrations (0.8-244 μM). In the first row, the sarcosine acceptor was omitted to account for background signal (i.e. natural catabolism of sinefungin and SAM decomposition). The methyltransfer reactions started upon addition of sarcosine (5 mM saturating final concentration). Volumes (60-μL) were transferred onto plate and absorbance signals were recorded. The initial rates of the reactions were corrected using data from first row experiments and plotted against sinefungin concentrations. Fit to the following Eq. 7 provided corresponding inhibition constant (Ki):
where V and V0 are the initial velocity with and without inhibitor, respectively. The Michelis constant for SAM substrate is depicted as Km and [SAM] is the concentration of this same molecule. The inhibition constant for sinefungin is represented by Ki and [SIN] is the concentration of this inhibitor. The parameter γ is the Hill coefficient. […]

The next experiment addresses GNMT (Rattus norvegicus, UniProt P13255). The following applies: cited from earlier work.
The next experiment deals with deaminase PA3170. Kind of experiment: Deamination of 5DOA by PA3170. Format: biochemical, Pseudomonas aeruginosa. The text has this: FIG. 3A-3C. The reaction catalyzed by deaminase PA3170 and its use as a coupling enzyme for monitoring radical SAM (RS) enzymes activity. (A) The 5′-deoxy-adenosine (5DOA) by-product of radical SAM enzyme reactions is efficiently converted into its inosyl-derivative (5DOI) by the deaminase PA3170. (B) The […] conversion is confirmed by HPLC as these two molecules have distinct retention times. The different spectral signatures between 5DOA and 5DOI (λmax1=259 nm and λmax2=249 nm, respectively) allow continuous monitoring of […] through UV-detection.

In experiment [1] the target is T2, CePRMT5 (Caenorhabditis elegans, UniProt P46580).
T2 construct: made in house
T2 sequence (P46580 1-734): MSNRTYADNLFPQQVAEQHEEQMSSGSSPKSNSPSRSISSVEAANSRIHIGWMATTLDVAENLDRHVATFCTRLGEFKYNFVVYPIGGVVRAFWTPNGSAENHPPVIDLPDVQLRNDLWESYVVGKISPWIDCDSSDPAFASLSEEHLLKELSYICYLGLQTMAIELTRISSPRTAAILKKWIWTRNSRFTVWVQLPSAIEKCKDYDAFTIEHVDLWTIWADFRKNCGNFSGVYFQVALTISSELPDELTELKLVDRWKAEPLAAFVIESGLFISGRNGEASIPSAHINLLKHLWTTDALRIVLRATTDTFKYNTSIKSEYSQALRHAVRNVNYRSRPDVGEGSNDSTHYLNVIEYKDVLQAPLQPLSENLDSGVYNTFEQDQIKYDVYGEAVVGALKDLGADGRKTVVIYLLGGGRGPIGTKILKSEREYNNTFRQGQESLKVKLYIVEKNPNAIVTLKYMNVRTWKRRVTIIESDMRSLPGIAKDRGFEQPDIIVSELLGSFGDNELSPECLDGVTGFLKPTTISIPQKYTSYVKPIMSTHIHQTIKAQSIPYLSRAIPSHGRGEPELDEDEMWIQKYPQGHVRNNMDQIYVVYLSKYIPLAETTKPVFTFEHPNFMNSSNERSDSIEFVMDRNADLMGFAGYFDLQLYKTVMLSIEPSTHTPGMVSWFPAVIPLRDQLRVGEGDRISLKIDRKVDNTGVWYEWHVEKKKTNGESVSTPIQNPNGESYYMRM
As to the kind of experiment: 1-Step EZ-MTase UV-based coupled assay, CePRMT5 kinetics. In kind it is biochemical. The following applies: pH=7.60, co-substrate saturating, 4 μM TM0936; 263 nm (282 nm for 8-aza-SAM). How it is done: The 250-μL reaction mixtures from a same row contained 50 mM phosphate buffer pH=7.60, 1 mM βME, 10% glycerol, 4 μM coupling deaminase TM0936, 300 nM CePRMT5 and various peptide concentrations (5-180 μM; in the first well, peptide acceptor was omitted to account for background signal—natural decomposition of SAM). The methyltransfer reactions started upon addition of SAM (25 μM saturating final concentration) and absorbance was recorded.
The 250-μL reaction mixtures from a same row contained 50 mM phosphate buffer pH=7.60, 1 mM βME, 10% glycerol, 4 μM coupling deaminase TM0936, 300 nM CePRMT5 and various SAM concentrations (2.35-47.0 μM). […] Initial rates were first corrected for background signal, then plotted against SAM concentrations and fitted to the Morrison kinetic model to yield corresponding kinetic parameters.
(§1) Kinetic behavior for 8-aza-SAM against MTases (acceptor sat.)—Briefly, kinetic parameters were determined at 20° C. in a UV-Star 96-well flat bottom plate (Greiner Bio-One, #655801) by continuous monitoring of absorbance at 282 nm using a SpectraMax M5 instrument (Molecular Devices). As for SAM experiments, the measurements consisted of two experimental subsets: MTase reactions (both 8-aza-SAM and acceptor added) and MTase blanks (8-aza-SAM was added without acceptor to account for natural 8-aza-SAM decomposition). The 250-μL (60-μL) reaction mixtures from a same row contained 50 mM phosphate buffer pH=7.60 (7.80), 1 mM βME, 10% glycerol (5% glycerol, 100 μM MgCl2), 4 μM coupling deaminase TM0936, either 1.5 μM CePRMT5 or 402 nM TbPRMT7 (or 610 nM GsSDMT) and various 8-aza-SAM concentrations. […] Initial rates were first corrected for background signal, then plotted against 8-aza-SAM concentrations and fitted to the Michaelis-Menten equation to yield corresponding kinetic parameters.

The target of experiment [2] is T3, TbPRMT7 (Trypanosoma brucei brucei, UniProt Q582G4).
T3 construct: made in house
Kind of experiment: 1-Step EZ-MTase UV-based coupled assay, TbPRMT7 kinetics (incl. ionic strength). The following applies: pH=7.60, 25 mM phosphate, co-substrate saturating. In kind it is biochemical. How it is done:
Briefly, the 250-μL reaction mixtures from a same row contained 25 mM phosphate buffer pH=7.60, 1 mM βME, 10% glycerol, 4 μM coupling deaminase TM0936, 1.0 μM TbPRMT7 and various peptide concentrations (16.6-243.3 μM; in the first well, peptide acceptor was omitted to account for background signal—natural decomposition of SAM). Reactions started upon addition of SAM (25.8 μM saturating final concentration) and absorbance was recorded. […] Fit to the Michaelis-Menten model (Eq. 5) provided corresponding kinetic parameters:
Briefly, the measurements consisted of two experimental subsets: MTase reactions (both SAM and peptide added) and MTase blanks (SAM was added without peptide to account for natural SAM decomposition). The 250-μL reaction mixtures from a same row contained 25 mM phosphate buffer pH=7.60, 1 mM βME, 10% glycerol, 4 μM coupling deaminase TM0936, 402 nM TbPRMT7 and various SAM concentrations (1.53-20.0 μM). […] Initial rates were first corrected for background signal, then plotted against SAM concentrations and fitted to the Morrison kinetic model to yield corresponding kinetic parameters.
as §1, with “parameters. The kinetic data from CePRMT5 were fit to the following Eq. 6 to reflect substrate inhibition observed at higher 8-aza-SAM concentration:” for “parameters.”
Experiments were conducted following TbPRMT7 protocol above. Briefly, the 250-μL reaction mixtures from a same row contained either 25, 50, 75 or 100 mM phosphate buffer pH=7.60, 1 mM βME, 10% glycerol, 4 μM coupling deaminase TM0936, 1.0 μM TbPRMT7 and various peptide concentrations (16.6-243.3 μM; in the first well, peptide acceptor was omitted to account for background signal—natural decomposition of SAM). Reactions started upon addition of SAM (25.8 μM saturating final concentration) and absorbance was recorded. […] The four fits to the Michaelis-Menten equation (kcat fixed at 29 h^−1) provided corresponding Km values and established impact of ionic strength onto this kinetic parameter.

Experiment [3] addresses T3, TbPRMT7. As to the kind of experiment: Fluorescence-based coupled assay, TbPRMT7 with 8-aza-SAM cofactor. The following applies: 8-aza-SAM 25.0 μM, pH=7.60, fluorescence-mode. Format: biochemical. How it is done: Briefly, the 250-μL reaction mixtures from a same row contained 25 mM phosphate buffer pH=7.60, 1 mM βME, 10% glycerol, 4 μM coupling deaminase TM0936, 805.2 nM TbPRMT7 and various peptide concentrations (0-144.55 μM. The first well contained only 8-aza-SAM without any coupling enzyme, nor methyltransferase; in the second well, peptide acceptor was omitted to account for background signal—natural decomposition of 8-aza-SAM). […]

Experiment [4] addresses T2, CePRMT5. The settings on record: lit. (46); cited from earlier work.
Experiment [5] deals with T4, NcDIM-5 (Neurospora crassa, UniProt Q8X225).
T4 construct: GST; made in house
T4 sequence (Q8X225 1-331): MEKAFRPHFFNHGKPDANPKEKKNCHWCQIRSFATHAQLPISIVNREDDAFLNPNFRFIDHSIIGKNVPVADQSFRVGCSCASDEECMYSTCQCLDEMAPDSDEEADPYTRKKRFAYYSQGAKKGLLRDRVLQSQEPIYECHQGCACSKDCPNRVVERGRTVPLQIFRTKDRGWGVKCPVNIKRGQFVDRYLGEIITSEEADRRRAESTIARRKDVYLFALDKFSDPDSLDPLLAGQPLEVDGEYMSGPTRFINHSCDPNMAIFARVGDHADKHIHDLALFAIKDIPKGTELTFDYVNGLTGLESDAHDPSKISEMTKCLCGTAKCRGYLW
As to the kind of experiment: Reported (literature) NcDIM-5 kinetics. In kind it is biochemical. The following applies: from reported values lit. (53).

Experiment [6] addresses T4, NcDIM-5. The following applies: literature values; cited from earlier work.

Like-named read-outs stand apart in the source and are kept apart here.

T3 sequence (Q582G4 whole entry): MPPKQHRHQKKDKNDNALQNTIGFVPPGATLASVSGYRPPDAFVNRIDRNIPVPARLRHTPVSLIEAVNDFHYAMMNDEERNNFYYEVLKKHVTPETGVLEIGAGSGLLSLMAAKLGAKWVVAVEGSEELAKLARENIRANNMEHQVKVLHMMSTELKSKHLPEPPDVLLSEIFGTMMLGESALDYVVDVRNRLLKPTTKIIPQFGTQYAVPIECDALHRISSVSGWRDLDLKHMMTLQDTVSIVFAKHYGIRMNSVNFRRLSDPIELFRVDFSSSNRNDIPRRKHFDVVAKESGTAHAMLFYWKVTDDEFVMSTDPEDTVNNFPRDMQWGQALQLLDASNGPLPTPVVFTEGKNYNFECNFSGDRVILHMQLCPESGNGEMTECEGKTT
Sequence of GNMT (P13255 whole entry): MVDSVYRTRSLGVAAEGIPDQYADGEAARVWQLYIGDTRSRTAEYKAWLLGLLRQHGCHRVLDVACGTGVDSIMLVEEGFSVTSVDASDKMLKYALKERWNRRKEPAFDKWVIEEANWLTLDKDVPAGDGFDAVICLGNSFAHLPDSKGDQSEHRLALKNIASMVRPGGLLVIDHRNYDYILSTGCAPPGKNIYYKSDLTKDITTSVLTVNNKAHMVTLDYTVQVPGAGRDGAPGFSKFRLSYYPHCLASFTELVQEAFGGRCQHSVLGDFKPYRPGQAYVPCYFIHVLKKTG

As for `Nc1ncnc2c1ncn2[C@@H]1O[C@H](C[C@@H](N)CC[C@H](N)C(=O)O)[C@@H](O)[C@H]1O` [sinefungin], the Ki at GsSDMT was found to be 1800 ± 400 nM.

Regarding `NCC(=O)O` [glycine], at GNMT, the Km was 130 µM.

On to `C[C@H]1O[C@@H](n2cnc3c(N)ncnc32)[C@H](O)[C@@H]1O` [5DOA, 5′-deoxy-adenosine], for which the “conversion into 5DOI by PA3170” value with deaminase PA3170 is reported as “full conversion”.

With “H4(1-20): H4(1-20) peptide substrate for CePRMT and TbPRMT7, purchased from GenScript”, the Km is 26 ± 2 µM with CePRMT5 [1], 39 ± 3 µM with TbPRMT7 [2], 71 ± 8 µM with TbPRMT7 [3] and 54 ± 4 µM in the experiment with CePRMT5 [4]. For the same compound, the kcat with CePRMT5 [1] is 0.00914 ± 0.00022 s⁻¹; in the experiment with TbPRMT7 [2], 0.00783 ± 0.00019 s⁻¹; in the experiment with TbPRMT7 [3] it was 0.0108 ± 0.00056 s⁻¹; in the experiment with CePRMT5 [4] it was 0.00794 ± 0.00019 s⁻¹.

Consider “H3(1-20): H3(1-20) peptide harboring a N-terminal biotinylation, from previous report”, for which, in the experiment with NcDIM-5 [5], the overall catalytic efficiency was 19 µM⁻¹ h⁻¹. In addition, in the experiment with NcDIM-5 [6], the Km was 7.4 µM and the kcat was 0.0383 s⁻¹.

One may read the Ki as the dissociation constant of the complex between target and ligand, obtained from inhibition or displacement. Usually Km stands for the concentration of substrate that gives half-maximal velocity. A word on the kcat: it is the maximal rate divided by the concentration of active sites.
